According to paper PMC8026773 (Alzheimer's & dementia : the journal of the Alzheimer's …, 2020):
One block for each binder: values may come before it.

Molecular target: GST-Aβ42 (monomeric amyloid beta 1-42 as a GST-fusion protein) (UniProt P05067 672-713)
Assay: BLI

Chain of GST-Aβ42 (monomeric amyloid beta 1-42 as a GST-fusion protein) (P05067 672-713): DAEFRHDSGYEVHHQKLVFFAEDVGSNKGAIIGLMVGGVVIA

- Kd: 3.8 µM
B1: human sTREM2 (aa 19-157), wild type, in solution (domain or fragment, UniProt Q9NZC2 19-157, looked up)
chain: HNTTVFQGVAGQSLQVSCPYDSMKHWGRRKAWCRQLGEKGPCQRVVSTHNLWLLSFLRRWNGSTAITDDTLGGTLTITLRNLQPHDAGLYQCQSLHGSEADTLRKVLVEVLADPLDHRDAGDLWFPGESESFEDAHVEH

- Kd: 5.1 µM
B2: human TREM2 Ig domain (aa 19-134), wild type, without BirA tag, in solution (domain or fragment, UniProt Q9NZC2 19-134, looked up)
chain: HNTTVFQGVAGQSLQVSCPYDSMKHWGRRKAWCRQLGEKGPCQRVVSTHNLWLLSFLRRWNGSTAITDDTLGGTLTITLRNLQPHDAGLYQCQSLHGSEADTLRKVLVEVLADPLD
